From patent US20120316071A1 (published 2012)
Where a chain is given by its changes, count along the chain named. In names and notes the source's numbering stands. Blank lines part the entries; values can stand above or below the binder they belong to.

Columns and labels:
[1] = target: T1, rHuman HGF R/c-MET/Fc Chimera, CF (R&D Systems Cat#358-MT/CF) (human, UniProt P08581 25-932); test: ECL Multispot (MSD) assay, antigen spotted on plate, 10 nM Fab; blank spot 378
T1 construct: Bought recombinant Fc chimera; also called HGF R/Fc; hepatocyte growth factor receptor; Fc part of the bought chimera not given

[2] = target: T2, rHuman ErbB2/Fc Chimera, CF (R&D Systems Cat#1129-ER) (human, UniProt P04626 23-652); test: as above
T2 construct: Bought recombinant Fc chimera; also called human epidermal growth factor 2 receptor; Fc part of the bought chimera not given

[3] = target: T3, rHuman EGF R/Fc Chimera, CF (R&D Systems Cat#344-ER) (human, UniProt P00533 25-645); test: as above
T3 construct: Bought recombinant Fc chimera; also called epidermal growth factor receptor; Fc part of the bought chimera not given

[4] = target: T4, rHuman CD44/Fc Chimera, CF (R&D Systems Cat#3660-CD) (human, UniProt P16070 21-220); test: as above
T4 construct: Bought recombinant Fc chimera; Fc part of the bought chimera not given

[5] = target: T5, Recombinant Human DLL4 (R&D Systems Cat#1506-D4/CF) (human, UniProt Q9NR61 27-524); test: as above
T5 construct: Bought recombinant protein; also called delta-like protein 4; rHuman DLL4

[6] = target: T6, rHuman IGF-1 sR, CF (R&D Systems Cat#391-GR) (human, UniProt P08069 31-932); test: as above
T6 construct: Bought soluble receptor; also called insulin-like growth factor-1 soluble receptor

[7] = target: T7, rHuman Notch-1/Fc Chimera, CF (R&D Systems Cat#3647-TK) (human, UniProt P46531 19-526); test: as above
T7 construct: Bought recombinant Fc chimera; Fc part of the bought chimera not given

[8] = target: T8, rHuman P-Cadherin/Fc Chimera, CF (R&D Systems Cat#861-PC) (human, UniProt P22223 108-654); test: as above
T8 construct: Bought recombinant Fc chimera; Fc part of the bought chimera not given

[9] = target: T9, rHuman Erythropoietin R/Fc Chimera, CF (R&D Systems Cat#963-ER) (human, UniProt P19235 25-250); test: as above
T9 construct: Bought recombinant Fc chimera; also called EPO R; EPO R/Fc; Fc part of the bought chimera not given
T9 sequence (looked up): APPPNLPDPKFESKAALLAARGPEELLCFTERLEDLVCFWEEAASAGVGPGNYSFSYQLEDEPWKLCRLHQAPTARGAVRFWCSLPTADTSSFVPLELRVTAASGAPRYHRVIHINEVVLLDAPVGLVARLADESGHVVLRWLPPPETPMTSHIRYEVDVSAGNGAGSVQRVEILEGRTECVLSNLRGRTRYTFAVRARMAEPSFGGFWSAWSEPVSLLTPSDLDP

[10] = target: T1, rHuman HGF R/c-MET/Fc Chimera, CF (R&D …); test: ECL Multispot (MSD) assay, antigen spotted on plate, 10 nM Fab; blank spot 302
[11] = target: T2, rHuman ErbB2/Fc Chimera, CF (R&D …); test: as above
[12] = target: T3, rHuman EGF R/Fc Chimera, CF (R&D …); test: as above
[13] = target: T4, rHuman CD44/Fc Chimera, CF (R&D Systems …); test: as above
[14] = target: T5, Recombinant Human DLL4 (R&D Systems …); test: as above
[15] = target: T6, rHuman IGF-1 sR, CF (R&D Systems …); test: as above
[16] = target: T7, rHuman Notch-1/Fc Chimera, CF (R&D …); test: as above
[17] = target: T8, rHuman P-Cadherin/Fc Chimera, CF (R&D …); test: as above
[18] = target: T9, rHuman Erythropoietin R/Fc Chimera, CF …; test: as above
[19] = target: T1, rHuman HGF R/c-MET/Fc Chimera, CF (R&D …); test: ECL Multispot (MSD) assay, antigen spotted on plate, 10 nM Fab; blank spot 271
[20] = target: T2, rHuman ErbB2/Fc Chimera, CF (R&D …); test: as above
[21] = target: T3, rHuman EGF R/Fc Chimera, CF (R&D …); test: as above
[22] = target: T4, rHuman CD44/Fc Chimera, CF (R&D Systems …); test: as above
[23] = target: T5, Recombinant Human DLL4 (R&D Systems …); test: as above
[24] = target: T6, rHuman IGF-1 sR, CF (R&D Systems …); test: as above
[25] = target: T7, rHuman Notch-1/Fc Chimera, CF (R&D …); test: as above
[26] = target: T8, rHuman P-Cadherin/Fc Chimera, CF (R&D …); test: as above
[27] = target: T9, rHuman Erythropoietin R/Fc Chimera, CF …; test: as above
[28] = target: T1, rHuman HGF R/c-MET/Fc Chimera, CF (R&D …); test: ECL Multispot (MSD) assay, antigen spotted on plate, 10 nM Fab; blank spot 296
[29] = target: T2, rHuman ErbB2/Fc Chimera, CF (R&D …); test: as above
[30] = target: T3, rHuman EGF R/Fc Chimera, CF (R&D …); test: as above
[31] = target: T4, rHuman CD44/Fc Chimera, CF (R&D Systems …); test: as above
[32] = target: T5, Recombinant Human DLL4 (R&D Systems …); test: as above
[33] = target: T6, rHuman IGF-1 sR, CF (R&D Systems …); test: as above
[34] = target: T7, rHuman Notch-1/Fc Chimera, CF (R&D …); test: as above
[35] = target: T8, rHuman P-Cadherin/Fc Chimera, CF (R&D …); test: as above
[36] = target: T9, rHuman Erythropoietin R/Fc Chimera, CF …; test: as above

T1 sequence (P08581 25-932, change not shown): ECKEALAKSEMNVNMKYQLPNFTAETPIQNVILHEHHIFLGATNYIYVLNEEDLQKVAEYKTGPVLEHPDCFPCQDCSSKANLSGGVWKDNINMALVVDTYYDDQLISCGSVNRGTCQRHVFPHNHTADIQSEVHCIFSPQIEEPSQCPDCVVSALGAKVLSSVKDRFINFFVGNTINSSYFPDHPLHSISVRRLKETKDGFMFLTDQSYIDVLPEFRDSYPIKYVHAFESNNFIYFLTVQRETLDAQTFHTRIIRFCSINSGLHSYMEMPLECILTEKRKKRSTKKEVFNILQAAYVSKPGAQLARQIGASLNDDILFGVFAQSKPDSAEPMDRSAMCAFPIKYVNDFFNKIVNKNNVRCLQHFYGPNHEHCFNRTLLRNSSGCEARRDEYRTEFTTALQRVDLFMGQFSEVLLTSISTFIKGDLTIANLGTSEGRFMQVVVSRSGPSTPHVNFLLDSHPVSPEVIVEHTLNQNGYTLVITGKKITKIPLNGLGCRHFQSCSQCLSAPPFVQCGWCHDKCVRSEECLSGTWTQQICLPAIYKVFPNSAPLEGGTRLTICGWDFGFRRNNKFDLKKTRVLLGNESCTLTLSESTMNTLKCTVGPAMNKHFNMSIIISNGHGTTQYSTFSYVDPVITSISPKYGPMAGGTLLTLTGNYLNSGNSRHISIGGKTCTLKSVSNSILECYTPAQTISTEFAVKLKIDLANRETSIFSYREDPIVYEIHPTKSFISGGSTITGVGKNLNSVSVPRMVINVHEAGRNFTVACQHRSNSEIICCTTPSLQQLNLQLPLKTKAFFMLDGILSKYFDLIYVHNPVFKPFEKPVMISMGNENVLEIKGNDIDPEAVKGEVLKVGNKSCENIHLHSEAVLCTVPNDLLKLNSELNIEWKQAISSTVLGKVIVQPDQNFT

B1: Fab VH1-46_IGHD6-6*01_IGHJ1*01 S102A/S103P/S104F/H111F S84G & L6_IGKJ1*01 (Fab, V domains shown)
VH: QVQLVQSGAEVKKPGASVKVSCKASGYTFTSYYMHWVRQAPGQGLEWMGIINPSGGSTSYAQKFQGRVTMTRDTSTSTVYMELGSLRSEDTAVYYCAREEYAPFSAEYFQFWGQGTLVTVSS
VL: not shown
notes: Fab expressed in E. coli: VH joined to CH1 from Plasmid A (with His6 and Flag tags), VL joined to kappa CL from Plasmid C; also called APFF S84G
ECL signal [1]: 419
ECL signal [2]: 299
ECL signal [3]: 435
ECL signal [4]: 457
ECL signal [5]: 131000
ECL signal [6]: 395
ECL signal [7]: 473
ECL signal [8]: 434
ECL signal [9]: 429

B2: Fab VH1-46_IGHD6-6*01_IGHJ1*01 S102A/S103P/S104F/H111F S84H & L6_IGKJ1*01 (Fab, V domains shown)
VH: B1 VH with G84H
VL: not shown
notes: Fab expressed in E. coli: VH joined to CH1 from Plasmid A (with His6 and Flag tags), VL joined to kappa CL from Plasmid C; also called APFF S84H
ECL signal [10]: 374
ECL signal [11]: 301
ECL signal [12]: 306
ECL signal [13]: 382
ECL signal [14]: 138000
ECL signal [15]: 353
ECL signal [16]: 331
ECL signal [17]: 319
ECL signal [18]: 318

Now from value to binder:

ECL signal [19]: 375
ECL signal [20]: 307
ECL signal [21]: 337
ECL signal [22]: 251
ECL signal [23]: 135000
ECL signal [24]: 324
ECL signal [25]: 309
ECL signal [26]: 167
ECL signal [27]: 415
B3: Fab VH1-46_IGHD6-6*01_IGHJ1*01 S102A/S103P/S104F/H111F S84N & L6_IGKJ1*01 (Fab, V domains shown)
VH: B1 VH with G84N
VL: not shown
notes: Fab expressed in E. coli: VH joined to CH1 from Plasmid A (with His6 and Flag tags), VL joined to kappa CL from Plasmid C; also called APFF S84N

ECL signal [28]: 255
ECL signal [29]: 311
ECL signal [30]: 347
ECL signal [31]: 372
ECL signal [32]: 122000
ECL signal [33]: 373
ECL signal [34]: 416
ECL signal [35]: 357
ECL signal [36]: 288
B4: Fab VH1-46_IGHD6-6*01_IGHJ1*01 S102A/S103P/S104F/H111F S84Q & L6_IGKJ1*01 (Fab, V domains shown)
VH: B1 VH with G84Q
VL: not shown
notes: Fab expressed in E. coli: VH joined to CH1 from Plasmid A (with His6 and Flag tags), VL joined to kappa CL from Plasmid C; also called APFF S84Q
